Test results published in publication PMC3034218 (Journal of molecular biology, 2004).
Each block holds one molecule with its values, some of them ahead of it.

B1: His-tagged DnaB, Bacillus stearothermophilus (enzyme, UniProt Q9X4C9 1-454, looked up)
chain: MSELFSERIPPQSIEAEQAVLGAVFLDPAALVPASEILIPEDFYRAAHQKIFHAMLRVADRGEPVDLVTVTAELAASEQLEEIGGVSYLSELADAVPTAANVEYYARIVEEKSVLRRLIRTATSIAQDGYTREDEIDVLLDEADRKIMEVSQRKHSGAFKNIKDILVQTYDNIEMLHNRDGEITGIPTGFTELDRMTSGFQRSDLIIVAARPSVGKTAFALNIAQNVATKTNENVAIFSLEMSAQQLVMRMLCAEGNINAQNLRTGKLTPEDWGKLTMAMGSLSNAGIYIDDTPSIRVSDIRAKCRRLKQESGLGMIVIDYLQLIQGSGRSKENRQQEVSEISRSLKALARELEVPVIALSQLSRSVEQRQDKRPMMSDIRESGSIEQDADIVAFLYRDDYYNKDSENKNIIEIIIAKQRNGPVGTVQLAFIKEYNKFVNLERRFDEAQIPPGA
B2: τ protein (τ subunit of the clamp-loader), B. subtilis, full-length (natural protein, UniProt P09122 1-563, looked up)
chain: MSYQALYRVFRPQRFEDVVGQEHITKTLQNALLQKKFSHAYLFSGPRGTGKTSAAKIFAKAVNCEHAPVDEPCNECAACKGITNGSISDVIEIDAASNNGVDEIRDIRDKVKFAPSAVTYKVYIIDEVHMLSIGAFNALLKTLEEPPEHCIFILATTEPHKIPLTIISRCQRFDFKRITSQAIVGRMNKIVDAEQLQVEEGSLEIIASAADGGMRDALSLLDQAISFSGDILKVEDALLITGAVSQLYIGKLAKSLHDKNVSDALETLNELLQQGKDPAKLIEDMIFYFRDMLLYKTAPGLEGVLEKVKVDETFRELSEQIPAQALYEMIDILNKSHQEMKWTNHPRIFFEVAVVKICQTSHQSAADLPEVDMLMKKIQQLEQEVERLKTTGIKAAAESPKKEAPRVPKGGKSNYKAPVGRIHEILKEATRPDLDLLRNSWGKLLAHLKQQNKVSHAALLNDSEPVAAGSAAFVLKFKYEIHCKMVAEDNNGVRTNLEQILESMLGKRMDLIGVPEAQWGKIREEFLEDHQQENEGSNEPAEEDPLIAEAKKLVGADLIEIKD

Tests used:
[1] = target: τ (Escherichia coli) (UniProt P06710); settings: cited from earlier work
Sequence of τ (Escherichia coli) (P06710 2-643): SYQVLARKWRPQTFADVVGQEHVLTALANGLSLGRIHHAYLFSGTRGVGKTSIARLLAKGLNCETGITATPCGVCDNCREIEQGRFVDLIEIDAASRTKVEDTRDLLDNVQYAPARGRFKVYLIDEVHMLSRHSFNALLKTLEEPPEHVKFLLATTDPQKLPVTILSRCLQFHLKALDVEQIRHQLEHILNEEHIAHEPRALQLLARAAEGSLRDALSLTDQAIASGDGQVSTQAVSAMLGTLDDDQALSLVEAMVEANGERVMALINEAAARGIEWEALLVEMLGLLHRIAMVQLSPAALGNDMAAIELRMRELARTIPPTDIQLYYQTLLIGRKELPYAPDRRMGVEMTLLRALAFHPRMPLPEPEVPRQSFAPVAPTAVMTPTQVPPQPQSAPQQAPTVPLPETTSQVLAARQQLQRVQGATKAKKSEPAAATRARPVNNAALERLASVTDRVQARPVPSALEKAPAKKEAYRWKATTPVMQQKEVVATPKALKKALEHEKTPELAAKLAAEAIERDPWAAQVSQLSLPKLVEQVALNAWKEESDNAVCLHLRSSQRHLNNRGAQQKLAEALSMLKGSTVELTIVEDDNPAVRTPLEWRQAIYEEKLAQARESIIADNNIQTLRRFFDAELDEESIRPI

[2] = target: τ domain III, B. subtilis (B. subtilis); experiment: SEC
[3] = target: B2; experiment: SPR
[4] = target: the molecule itself; experiment: atomic force microscopy

Molecule: DnaB (from UniProt P0ACB0)
Kd [1]: 4 nM

stoichiometry N [2]: 2
Molecule: τ domain III, B. subtilis (domain or fragment)

Molecule: B1
Kd [3]: 2.3 nM

Molecule: B2
binding result [4]: binds
